Consider three molecules from patent publication US6790444.

For one assay, the target named is T1, human lymphotoxin (TNFβ) (human, UniProt P01374 35-205, limits assumed).
T1 sequence (looked up): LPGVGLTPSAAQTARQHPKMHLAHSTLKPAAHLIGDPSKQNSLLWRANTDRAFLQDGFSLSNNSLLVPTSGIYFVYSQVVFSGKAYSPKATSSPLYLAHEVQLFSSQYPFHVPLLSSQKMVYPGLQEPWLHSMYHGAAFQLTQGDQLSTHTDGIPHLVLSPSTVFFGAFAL
As to the kind of experiment: cell-based or functional assay.

Assay [1] concerns the target human tumor necrosis factor-α (TNFα) (human) (UniProt P01375). As to the kind of experiment: cell-based or functional assay.

Sequence of human tumor necrosis factor-α (TNFα) (human) (P01375 77-233): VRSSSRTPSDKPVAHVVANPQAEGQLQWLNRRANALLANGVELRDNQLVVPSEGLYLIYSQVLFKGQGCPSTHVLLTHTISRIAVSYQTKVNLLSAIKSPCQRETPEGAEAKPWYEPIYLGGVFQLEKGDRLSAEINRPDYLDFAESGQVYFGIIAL

For the molecule “p55-sf2 (p55 TNF receptor / IgG1 heavy chain single fusion with truncated light chain JCK) (from UniProt P19438 32-188) (Fc fusion)”, in the assay with human lymphotoxin (TNFβ), the amount needed for the same degree of inhibition of TNFβ cytotoxicity, against p75P-sf2 came to 3 fold.

B1: p75-sf2 (complete p75 extracellular domain fused to the IgG1 heavy chain) (Fc fusion)
chain: QLPAQVAFTPYAPEPGSTCRLREYYDQTAQMCCSKCSPGQHAKVFCTKTSDTVCDSCEDSTYTQLWNWVPECLSCGSRCSSDQVETQACTREQNRICTCRPGWYCALSKQEGCRLCAPLRKCRPGFGVARPGTETSDVVCKPCAPGTFSNTTSSTDICRPHQICNVVAIPGNASMDAVCTSTSPTRSMAPGAVHLPQPVSTRSQHTQPTPEPSTAPSTSFLLPMGPSPPAEGSTGDGTLVTVSS
Take B1: the “amount needed for the same degree of inhibition of TNFβ cytotoxicity, against p75P-sf2” value in the assay with human lymphotoxin (TNFβ) is 3 fold.

B2: chimeric mouse/human IgG1 anti-platelet mAb (7E3) (antibody, INN chains, looked up, V domains shown)
VH: EVQLQQSGTVLARPGASVKMSCEASGYTFTNYWMHWVKQRPGQGLEWIGAIYPGNSDTSYIQKFKGKAKLTAVTSTTSVYMELSSLTNEDSAVYYCTLYDGYYVFAYWGQGTLVTVSA
VL: EIVLTQSPVTLSVTPGDSVSLSCRASRDISNNLHWFQQTSHESPRLLIKYASQSMSGIPSRFSGSGSGTDFTLSINSVETEDFGMYFCQQTNSWPYTFGGGTKLEIK
modifications: chimeric IgG1
As for B2, in assay [1], the IL-6 secreted by FS-4 fibroblasts; 0.3 ng/ml rhTNF, 4 µg/ml antibody came to 1.6 ng/mL; the IL-6 secreted by FS-4 fibroblasts; 1.5 ng/ml rhTNF, 4 µg/ml antibody is 1.96 ng/mL; the IL-6 secreted by FS-4 fibroblasts; 7.5 ng/ml rhTNF, 4 µg/ml antibody worked out at 2.16 ng/mL.
